Biological target: GBSIII-OVAp (GBSIII conjugated to OVAp19)
Assay: cell-based or functional assay

## T-cell receptor of DO11.10 transgenic mice that recognizes OVA peptide 323-339 in the context of MHC class II (I-A^d) (TCR)
  T cell proliferation, stimulation index (SI), 10 µg GBSIII-OVAp: 53.6 SI
  fold decrease in T cell proliferation against OVAp of the same amount: 60 fold

— patent US9358302
